Source: US11814447B2, “Peptide ligands for binding to EphA2” (BICYCLERD LIMITED, priority 2018, dated 2023)
Each block holds one binder with its values, some of them ahead of it. Starred links: 1 amine or outer side, 2 acyl side, 3 side chain; linkers in the order of their positions; H or OH if unused. Positions of bridges follow the written chain, without caps; N, C: chain ends. Non-standard residues stand in square brackets, D forms with d. No end group written: not given here. ThiAz = 3-(1,2,4-triazol-1-yl)-alanine, O=C([C@H](Cn1cncn1)N[*:1])[*:2]; TATA = O=C(CC[*:1])N1CN(C(=O)CC[*:2])CN(C(=O)CC[*:3])C1; Ala(2-furyl) = N[C@@H](Cc1ccco1)C(=O)O; 1Nal = N[C@@H](Cc1cccc2ccccc12)C(=O)O; TBMB = c1c(C[*:1])cc(C[*:3])cc1C[*:2]; hArg = N=C(N)NCCCC[C@H](N)C(=O)O; 2Thi = N[C@@H](Cc1cccs1)C(=O)O; Tle = CC(C)(C)[C@H](N)C(=O)O; Pip = O=C(O)[C@@H]1CCCCN1; Aze = O=C(O)[C@@H]1CCN1; Aib = CC(C)(N)C(=O)O; azaGly = NNC(=O)O; βAla = NCCC(=O)O; Sar = CNCC(=O)O

Tests used:
Human EphA2 (Ecto) [1] = biological target: T1, Human EphA2 (Ecto) (Human, UniProt P29317 24-537); experiment: FP competition, tracer Compound 18
T1 construct: extracellular domain
Procedure: (§1) Peptides without a fluorescent tag were tested in competition with a peptide with a fluorescent tag and a known Kd (Table 2). Peptides were diluted to an appropriate concentration in assay buffer as described in the direct binding assay with a maximum of 5% DMSO, then serially diluted 1 in 2. […] Measurements were conducted as for the direct binding assay, however the gain was determined prior to the first measurement. Data analysis was in Systat Sigmaplot version 12.0 where the mP values were fit to a user defined cubic equation to generate a Ki value: […]
T1 sequence (P29317 24-537): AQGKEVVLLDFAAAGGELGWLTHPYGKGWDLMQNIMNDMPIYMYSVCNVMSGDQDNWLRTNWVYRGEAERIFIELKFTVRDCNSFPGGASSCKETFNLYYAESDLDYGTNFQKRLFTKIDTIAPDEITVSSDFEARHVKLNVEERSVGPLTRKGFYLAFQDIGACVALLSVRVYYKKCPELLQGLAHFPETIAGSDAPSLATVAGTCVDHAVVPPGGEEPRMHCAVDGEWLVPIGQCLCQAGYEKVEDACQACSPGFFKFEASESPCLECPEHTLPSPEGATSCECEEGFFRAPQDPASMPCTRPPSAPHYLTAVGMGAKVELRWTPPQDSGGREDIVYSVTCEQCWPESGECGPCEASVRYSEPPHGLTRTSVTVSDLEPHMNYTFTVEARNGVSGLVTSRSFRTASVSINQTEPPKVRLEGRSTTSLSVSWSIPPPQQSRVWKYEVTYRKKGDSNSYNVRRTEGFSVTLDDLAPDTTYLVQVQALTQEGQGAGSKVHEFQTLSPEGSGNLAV

Human EphA2 (Ecto) [2] = biological target: T2, Human EphA2 (Ecto) (Human, UniProt P29317 24-537); experiment: FP competition; tracer Reference Compound C
T2 construct: extracellular domain; in-house)
Procedure: as §1
T2 sequence (P29317 24-537): as above

B1: Bicycle Compound 230 (peptide)
peptide: Ac-[Sar][Sar]A[dH]DVPCP[1Nal]GPFWCP[Tle]N[hArg]PGC
modifications: linker 8-15-22 via TBMB
Ki (Human EphA2 (Ecto) [1]): 1.8 nM

B2: Bicycle Compound 203 (peptide)
peptide: [Sar][Sar]A[Ala(2-furyl)]DVPCPWGPFWCPVNRPGC
modifications: linker 8-15-22 via TBMB
Ki (Human EphA2 (Ecto) [1]): 0.49 nM

B4: Bicycle Compound 221 (peptide)
peptide: [Sar][Sar]AHDV[Aze]CPWGPFWCPVNRPGC
modifications: linker 8-15-22 via TBMB
Ki (Human EphA2 (Ecto) [1]): 3.1 nM

B6: Bicycle Compound 216 (peptide)
peptide: [Sar][Sar]AHD[Aib]PCPWGPFWCPVNRPGC
modifications: linker 8-15-22 via TBMB
Ki (Human EphA2 (Ecto) [1]): 2.77 nM

B7: Bicycle Compound Number 46 (TATA scaffold), ACGFMGLEPCELFCA (peptide)
peptide: ACGFMGLEPCELFCA
modifications: linker 2-10-14 via TATA (inferred)
Ki (Human EphA2 (Ecto) [2]): 81.7 nM

B12: Bicycle Compound 209 (peptide)
peptide: [Sar][Sar]AH[dD]VPCPWGPFWCPVNRPGC
modifications: linker 8-15-22 via TBMB
Ki (Human EphA2 (Ecto) [1]): 1.25 nM

B14: Bicycle Compound 210 (peptide)
peptide: Ac-[Sar][Sar]AH[dD]VPCPWGPFWCPVNRPGC
modifications: linker 8-15-22 via TBMB
Ki (Human EphA2 (Ecto) [1]): 1.1 nM

B15: Bicycle Compound 227 (peptide)
peptide: Ac-[Sar][Sar]AH[dD]VPCP[1Nal]GPFWCP[Tle]N[hArg]PGC
modifications: linker 8-15-22 via TBMB
Ki (Human EphA2 (Ecto) [1]): 0.75 nM

B17: Bicycle Compound 211 (peptide)
peptide: Ac-[Sar][Sar]AH[dD][Tle]PCPWGPFWCPVNRPGC
modifications: linker 8-15-22 via TBMB
Ki (Human EphA2 (Ecto) [1]): 3.1 nM

B23: Bicycle Compound 220 (peptide)
peptide: [Sar][Sar]AHDV[Aib]CPWGPFWCPVNRPGC
modifications: linker 8-15-22 via TBMB
Ki (Human EphA2 (Ecto) [1]): 0.83 nM

B24: Bicycle Compound 223 (peptide)
peptide: [βAla][Sar][Sar][Sar][Sar][Sar][Sar][Sar][Sar][Sar][Sar]HDVPCPWGPFWCPVNRPGC
modifications: linker 16-23-30 via TBMB
Ki (Human EphA2 (Ecto) [1]): 1.29 nM

B25: Bicycle Compound 213 (peptide)
peptide: Ac-[Sar][Sar]AH[dD]V[Aib]CPWGPFWCPVNRPGC
modifications: linker 8-15-22 via TBMB
Ki (Human EphA2 (Ecto) [1]): 1.9 nM

B29: Bicycle Compound 194 (peptide)
peptide: Ac-[Sar][Sar][dA]HDVPCPWGPFWCPVNRPGC
modifications: linker 8-15-22 via TBMB
Ki (Human EphA2 (Ecto) [1]): 1.2 nM

B30: Bicycle Compound 228 (peptide)
peptide: Ac-[Sar][Sar]A[dH]DVPCPWGPAWCPVNRPGC
modifications: linker 8-15-22 via TBMB; also: A13 (ΨAla): reduced amide backbone bond
Ki (Human EphA2 (Ecto) [1]): 210 nM

B32: Bicycle Compound 204 (peptide)
peptide: Ac-[Sar][Sar]A[dH]D[Tle]PCPWGPFWCPVNRPGC
modifications: linker 8-15-22 via TBMB
Ki (Human EphA2 (Ecto) [1]): 2.15 nM

B35: Bicycle Compound 226 (peptide)
peptide: [βAla][Sar][Sar][Sar][Sar][Sar][Sar][Sar][Sar][Sar][Sar]H[dD]VPCPWGPFWCPVNRPGC
modifications: linker 16-23-30 via TBMB
Ki (Human EphA2 (Ecto) [1]): 0.84 nM

B37: Bicycle Compound 222 (peptide)
peptide: [Sar][Sar]AHDV[Pip]CPWGPFWCPVNRPGC
modifications: linker 8-15-22 via TBMB
Ki (Human EphA2 (Ecto) [1]): 3.4 nM

B41: Bicycle Compound 212 (peptide)
peptide: Ac-[Sar][Sar]AH[dD]V[Sar]CPWGPFWCPVNRPGC
modifications: linker 8-15-22 via TBMB
Ki (Human EphA2 (Ecto) [1]): 4.95 nM

B43: Bicycle Compound 202 (peptide)
peptide: [Sar][Sar]A[ThiAz]DVPCPWGPFWCPVNRPGC
modifications: linker 8-15-22 via TBMB
Ki (Human EphA2 (Ecto) [1]): 0.7 nM

B44: Bicycle Compound 197 (peptide)
peptide: [Sar][Sar]A[dH]DVPCPWGPFWCPVNRPGC
modifications: linker 8-15-22 via TBMB
Ki (Human EphA2 (Ecto) [1]): 1.2 nM

B46: Bicycle Compound 196 (peptide)
peptide: Ac-[Sar][Sar]A[dH]DVPCPWGPFWCPVNRPGC
modifications: linker 8-15-22 via TBMB
Ki (Human EphA2 (Ecto) [1]): 0.95 nM

B48: Bicycle Compound 201 (peptide)
peptide: [Sar][Sar]A[2Thi]DVPCPWGPFWCPVNRPGC
modifications: linker 8-15-22 via TBMB
Ki (Human EphA2 (Ecto) [1]): 0.6 nM

B49: Bicycle Compound 217 (peptide)
peptide: [Sar][Sar]AHD[Tle]PCPWGPFWCPVNRPGC
modifications: linker 8-15-22 via TBMB
Ki (Human EphA2 (Ecto) [1]): 0.49 nM

Now from value to binder:

Ki (Human EphA2 (Ecto) [1]): 0.87 nM
B3: Bicycle Compound 282 (peptide)
peptide: Ac-[Sar][Sar]A[dD]DVTCP[1Nal]GPFWCPVNRPGC
modifications: linker 8-15-22 via TBMB

Ki (Human EphA2 (Ecto) [1]): 3.8 nM
B5: Bicycle Compound 284 (peptide)
peptide: Ac-[Sar][Sar]A[dD]DVTCP[1Nal]G[Aib]FWCP[Tle]N[hArg]PGC
modifications: linker 8-15-22 via TBMB

Ki (Human EphA2 (Ecto) [2]): 127 nM
B8: Bicycle Compound Number 44 (TATA scaffold), ACGFMGLEPCELVCA (peptide)
peptide: ACGFMGLEPCELVCA
modifications: linker 2-10-14 via TATA

Ki (Human EphA2 (Ecto) [2]): 188 nM
B9: Bicycle Compound Number 40 (TATA scaffold), ACGFMGLEPCETFCA (peptide)
peptide: ACGFMGLEPCETFCA
modifications: linker 2-10-14 via TATA

Ki (Human EphA2 (Ecto) [2]): 320 nM
B10: Bicycle Compound Number 42 (TATA scaffold), ACGFMGLEPCEMVCA (peptide)
peptide: ACGFMGLEPCEMVCA
modifications: linker 2-10-14 via TATA

Ki (Human EphA2 (Ecto) [2]): 94.8 nM
B11: Bicycle Compound Number 19 (TATA scaffold), SRPCVIDSRCAYMNVCA (peptide)
peptide: SRPCVIDSRCAYMNVCA
modifications: linker 4-10-16 via TATA

Ki (Human EphA2 (Ecto) [1]): 4.8 nM
B13: Bicycle Compound 233 (peptide)
peptide: Ac-[Sar][Sar]A[dH]DVPCPWG[Aib]FWCP[Tle]NR[Aib]GC
modifications: linker 8-15-22 via TBMB

Ki (Human EphA2 (Ecto) [2]): 400 nM
B16: Bicycle Compound Number 38 (TATA scaffold), ACSSCWAYPDSVCA (peptide)
peptide: ACSSCWAYPDSVCA
modifications: linker 2-5-13 via TATA

Ki (Human EphA2 (Ecto) [2]): 70 nM
B18: Bicycle Compound Number 16 (TATA scaffold), ACVPDRRCAYMNVCA (peptide)
peptide: ACVPDRRCAYMNVCA
modifications: linker 2-8-14 via TATA

Ki (Human EphA2 (Ecto) [2]): 278 nM
B19: Bicycle Compound Number 15 (TATA scaffold), ACMNDWWCAMGWKCA (peptide)
peptide: ACMNDWWCAMGWKCA
modifications: linker 2-8-14 via TATA

Ki (Human EphA2 (Ecto) [2]): 321 nM
B20: Bicycle Compound Number 39 (TATA scaffold), ACQSCWAYPDTYCA (peptide)
peptide: ACQSCWAYPDTYCA
modifications: linker 2-5-13 via TATA

Ki (Human EphA2 (Ecto) [2]): 268 nM
B21: Bicycle Compound Number 33 (TATA scaffold), ACTKPTGFCAYPDTICA (peptide)
peptide: ACTKPTGFCAYPDTICA
modifications: linker 2-9-16 via TATA

Ki (Human EphA2 (Ecto) [2]): 159 nM
B22: Bicycle Compound Number 27 (TATA scaffold), ACVPDRRCAFQDVCDHE (peptide)
peptide: ACVPDRRCAFQDVCDHE
modifications: linker 2-8-14 via TATA

Ki (Human EphA2 (Ecto) [2]): 70.8 nM
B26: Bicycle Compound Number 18 (TATA scaffold), DLRCGGDPRCAYMNVCA (peptide)
peptide: DLRCGGDPRCAYMNVCA
modifications: linker 4-10-16 via TATA

Ki (Human EphA2 (Ecto) [2]): 85 nM
B27: Bicycle Compound Number 17 (TATA scaffold), (β-Ala)-Sar10-ACVPDRRCAYMNVC (peptide)
peptide: [βAla][Sar][Sar][Sar][Sar][Sar][Sar][Sar][Sar][Sar][Sar]ACVPDRRCAYMNVC
modifications: linker 13-19-25 via TATA

Ki (Human EphA2 (Ecto) [1]): 0.28 nM
B28: Bicycle Compound 283 (peptide)
peptide: Ac-[Sar][Sar]A[dD]DVTCP[1Nal]GPF[1Nal]CPVNRPGC
modifications: linker 8-15-22 via TBMB

Ki (Human EphA2 (Ecto) [1]): 5.78 nM
B31: Bicycle Compound 281 (peptide)
peptide: Ac-[Sar][Sar]A[dD]DVTCPWGPFWCPVNRPGC
modifications: linker 8-15-22 via TBMB

Ki (Human EphA2 (Ecto) [2]): 57 nM
B33: Bicycle Compound Number 20 (TATA scaffold), ESRCSPDARCAYMNVCA (peptide)
peptide: ESRCSPDARCAYMNVCA
modifications: linker 4-10-16 via TATA

Ki (Human EphA2 (Ecto) [2]): 130 nM
B34: Bicycle Compound Number 23 (TATA scaffold), ETVCLPDSRCAYMNVCA (peptide)
peptide: ETVCLPDSRCAYMNVCA
modifications: linker 4-10-16 via TATA

Ki (Human EphA2 (Ecto) [1]): 0.66 nM
B36: Bicycle Compound 267 (peptide)
peptide: Ac-[Sar][Sar]H[dD]VPCPW[azaGly]PFWCPVNRPGC
modifications: linker 7-14-21 via TBMB

Ki (Human EphA2 (Ecto) [2]): 348 nM
B38: Bicycle Compound Number 34 (TATA scaffold), ACRGEWGYCAYPDTICA (peptide)
peptide: ACRGEWGYCAYPDTICA
modifications: linker 2-9-16 via TATA

Ki (Human EphA2 (Ecto) [2]): 62.1 nM
B39: Bicycle Compound Number 21 (TATA scaffold), HSGCRPDPRCAYMNVCA (peptide)
peptide: HSGCRPDPRCAYMNVCA
modifications: linker 4-10-16 via TATA

Ki (Human EphA2 (Ecto) [2]): 282 nM
B40: Bicycle Compound Number 35 (TATA scaffold), ACRNWGMYCAYPDTICA (peptide)
peptide: ACRNWGMYCAYPDTICA
modifications: linker 2-9-16 via TATA

Ki (Human EphA2 (Ecto) [2]): 97.3 nM
B42: Bicycle Compound Number 25 (TATA scaffold), ACVPDRRCAFENVCVDH (peptide)
peptide: ACVPDRRCAFENVCVDH
modifications: linker 2-8-14 via TATA

Ki (Human EphA2 (Ecto) [2]): 160 nM
B45: Bicycle Compound Number 36 (TATA scaffold), ACPDWGKYCAYPDTICA (peptide)
peptide: ACPDWGKYCAYPDTICA
modifications: linker 2-9-16 via TATA

Ki (Human EphA2 (Ecto) [2]): 1700 nM
B47: Bicycle Compound Number 28 (TATA scaffold), ACVPDRRCAFRDVCLTG (peptide)
peptide: ACVPDRRCAFRDVCLTG
modifications: linker 2-8-14 via TATA
